The source of these data is patent US20180237475A1 (BIONIZ, published 2018).

The target in this test is T1, human γc-subunit (common γ subunit, CD132) (human, UniProt P31785 23-369).
T1 sequence (looked up): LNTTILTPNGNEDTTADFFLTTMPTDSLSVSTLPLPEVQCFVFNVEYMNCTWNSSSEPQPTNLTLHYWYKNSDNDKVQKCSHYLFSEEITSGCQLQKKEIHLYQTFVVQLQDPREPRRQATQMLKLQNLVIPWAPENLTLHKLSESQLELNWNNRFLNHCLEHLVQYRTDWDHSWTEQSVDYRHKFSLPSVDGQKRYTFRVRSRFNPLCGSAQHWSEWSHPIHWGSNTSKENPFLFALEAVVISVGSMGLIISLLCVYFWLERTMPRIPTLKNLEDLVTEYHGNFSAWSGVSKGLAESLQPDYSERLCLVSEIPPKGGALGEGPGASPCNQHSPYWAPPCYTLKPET
Briefly: cell-based or functional assay.

Regarding IKEFLQRFIHIVQSIINTS [BNZ132-1], the “IC50 on IL-2/IL-15-induced (0.1 nM each) proliferation of ex vivo human T-lymphocytes” value was 150 nM.
